Assay results as given in US20250084453.

How the values were obtained:
[1] = molecular target: translation termination factor GSPT2, endogenous in HEK293T cells (UniProt Q8IYD1)
[2] = molecular target: translation termination factor GSPT1, endogenous in HEK293T cells (UniProt P15170)
[3] = molecular target: VCL (vinculin), endogenous in HEK293T cells (UniProt P18206)
[4] = molecular target: T1, RBM39 (RNA-Binding Motif Protein 39)/CAPERα, endogenous in HEK293T cells (UniProt Q14498)
T1 sequence: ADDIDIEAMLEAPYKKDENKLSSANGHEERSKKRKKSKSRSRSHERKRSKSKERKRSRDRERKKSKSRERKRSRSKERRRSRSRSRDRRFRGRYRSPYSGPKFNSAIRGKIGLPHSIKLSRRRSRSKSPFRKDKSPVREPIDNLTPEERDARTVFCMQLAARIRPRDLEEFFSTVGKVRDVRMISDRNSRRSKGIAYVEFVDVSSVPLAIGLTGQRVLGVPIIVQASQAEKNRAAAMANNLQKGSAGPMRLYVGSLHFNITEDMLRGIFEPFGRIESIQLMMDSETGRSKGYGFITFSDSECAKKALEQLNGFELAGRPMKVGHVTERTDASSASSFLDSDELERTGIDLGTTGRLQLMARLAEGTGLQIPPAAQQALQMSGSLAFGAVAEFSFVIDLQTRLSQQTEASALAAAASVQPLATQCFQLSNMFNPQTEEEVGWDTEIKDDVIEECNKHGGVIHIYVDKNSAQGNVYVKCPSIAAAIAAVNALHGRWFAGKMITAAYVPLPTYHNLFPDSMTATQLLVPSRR

[5] = molecular target: BRD2, endogenous in HEK293T cells (UniProt P25440)
[6] = molecular target: BRD3, endogenous in HEK293T cells (UniProt Q15059)
[7] = molecular target: BRD4, endogenous in HEK293T cells (UniProt O60885)
[8] = molecular target: HIF1A, endogenous in HEK293T or A375 cells (UniProt Q16665)
V5-tagged IKZF1 protein = V5-tagged IKZF1 protein (UniProt Q13422)
[9] = molecular target: GLUL (glutamine synthetase), endogenous in HEK293T cells (UniProt P15104)
GLUL (glutamine synthetase), endogenous in HEK293T cells, sequence (P15104 2-373): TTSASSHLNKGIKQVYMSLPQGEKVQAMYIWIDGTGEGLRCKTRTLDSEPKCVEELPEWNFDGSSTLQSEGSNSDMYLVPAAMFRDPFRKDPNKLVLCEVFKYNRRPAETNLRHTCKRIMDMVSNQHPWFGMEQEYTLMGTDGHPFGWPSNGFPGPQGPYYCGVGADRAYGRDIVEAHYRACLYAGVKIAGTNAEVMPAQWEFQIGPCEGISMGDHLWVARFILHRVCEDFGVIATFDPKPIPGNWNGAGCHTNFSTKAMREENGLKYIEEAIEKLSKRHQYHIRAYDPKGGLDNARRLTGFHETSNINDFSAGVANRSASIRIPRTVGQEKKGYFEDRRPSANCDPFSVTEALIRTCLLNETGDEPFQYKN

translation termination factor GSPT2, endogenous in HEK293T cells, sequence (Q8IYD1 whole entry): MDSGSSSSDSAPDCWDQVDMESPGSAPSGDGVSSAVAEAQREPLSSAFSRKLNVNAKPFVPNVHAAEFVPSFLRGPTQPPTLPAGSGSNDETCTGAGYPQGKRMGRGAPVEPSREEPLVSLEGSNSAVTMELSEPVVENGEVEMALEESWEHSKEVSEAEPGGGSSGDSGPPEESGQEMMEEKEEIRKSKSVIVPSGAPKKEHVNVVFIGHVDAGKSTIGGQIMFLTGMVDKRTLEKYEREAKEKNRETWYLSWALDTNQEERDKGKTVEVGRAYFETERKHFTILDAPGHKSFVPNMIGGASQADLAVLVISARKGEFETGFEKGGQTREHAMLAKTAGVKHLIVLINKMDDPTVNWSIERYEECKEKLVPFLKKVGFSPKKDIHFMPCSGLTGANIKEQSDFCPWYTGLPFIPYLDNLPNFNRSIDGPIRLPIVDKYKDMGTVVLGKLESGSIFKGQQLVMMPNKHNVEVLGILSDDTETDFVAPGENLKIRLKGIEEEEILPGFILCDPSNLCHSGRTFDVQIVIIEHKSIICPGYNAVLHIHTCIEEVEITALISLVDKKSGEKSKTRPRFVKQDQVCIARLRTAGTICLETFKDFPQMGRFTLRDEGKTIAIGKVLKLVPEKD
V5-tagged IKZF1 protein, sequence (Q13422 whole entry, looked up): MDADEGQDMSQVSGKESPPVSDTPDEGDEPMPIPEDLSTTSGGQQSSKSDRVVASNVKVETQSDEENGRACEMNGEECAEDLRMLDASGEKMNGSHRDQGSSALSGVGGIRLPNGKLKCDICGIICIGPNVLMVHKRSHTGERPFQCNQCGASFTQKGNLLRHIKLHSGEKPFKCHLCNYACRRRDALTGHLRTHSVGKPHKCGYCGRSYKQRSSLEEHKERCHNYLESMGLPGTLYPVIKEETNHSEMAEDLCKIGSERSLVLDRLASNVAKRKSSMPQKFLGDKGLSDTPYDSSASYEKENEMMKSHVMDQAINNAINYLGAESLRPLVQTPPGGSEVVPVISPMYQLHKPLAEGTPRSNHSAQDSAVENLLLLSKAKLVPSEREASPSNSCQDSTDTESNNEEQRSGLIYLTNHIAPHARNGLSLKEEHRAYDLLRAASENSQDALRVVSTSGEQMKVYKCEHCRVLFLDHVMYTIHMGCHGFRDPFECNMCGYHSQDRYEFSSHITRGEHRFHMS
translation termination factor GSPT1, endogenous in HEK293T cells, sequence (P15170 whole entry): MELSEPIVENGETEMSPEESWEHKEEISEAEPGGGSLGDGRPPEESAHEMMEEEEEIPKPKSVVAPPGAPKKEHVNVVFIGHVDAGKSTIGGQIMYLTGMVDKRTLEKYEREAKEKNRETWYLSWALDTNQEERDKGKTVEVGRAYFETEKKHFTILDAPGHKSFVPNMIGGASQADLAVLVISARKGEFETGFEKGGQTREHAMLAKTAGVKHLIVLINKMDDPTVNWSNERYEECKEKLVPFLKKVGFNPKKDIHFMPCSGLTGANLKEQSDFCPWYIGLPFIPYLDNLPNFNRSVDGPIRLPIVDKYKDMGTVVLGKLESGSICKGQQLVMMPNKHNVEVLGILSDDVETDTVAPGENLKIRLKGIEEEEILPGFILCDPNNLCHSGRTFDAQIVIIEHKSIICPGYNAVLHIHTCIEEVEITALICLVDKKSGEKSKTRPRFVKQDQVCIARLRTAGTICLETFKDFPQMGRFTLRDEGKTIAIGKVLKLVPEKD
VCL (vinculin), endogenous in HEK293T cells, sequence (P18206 other isoform, or with tags, fused parts or gaps): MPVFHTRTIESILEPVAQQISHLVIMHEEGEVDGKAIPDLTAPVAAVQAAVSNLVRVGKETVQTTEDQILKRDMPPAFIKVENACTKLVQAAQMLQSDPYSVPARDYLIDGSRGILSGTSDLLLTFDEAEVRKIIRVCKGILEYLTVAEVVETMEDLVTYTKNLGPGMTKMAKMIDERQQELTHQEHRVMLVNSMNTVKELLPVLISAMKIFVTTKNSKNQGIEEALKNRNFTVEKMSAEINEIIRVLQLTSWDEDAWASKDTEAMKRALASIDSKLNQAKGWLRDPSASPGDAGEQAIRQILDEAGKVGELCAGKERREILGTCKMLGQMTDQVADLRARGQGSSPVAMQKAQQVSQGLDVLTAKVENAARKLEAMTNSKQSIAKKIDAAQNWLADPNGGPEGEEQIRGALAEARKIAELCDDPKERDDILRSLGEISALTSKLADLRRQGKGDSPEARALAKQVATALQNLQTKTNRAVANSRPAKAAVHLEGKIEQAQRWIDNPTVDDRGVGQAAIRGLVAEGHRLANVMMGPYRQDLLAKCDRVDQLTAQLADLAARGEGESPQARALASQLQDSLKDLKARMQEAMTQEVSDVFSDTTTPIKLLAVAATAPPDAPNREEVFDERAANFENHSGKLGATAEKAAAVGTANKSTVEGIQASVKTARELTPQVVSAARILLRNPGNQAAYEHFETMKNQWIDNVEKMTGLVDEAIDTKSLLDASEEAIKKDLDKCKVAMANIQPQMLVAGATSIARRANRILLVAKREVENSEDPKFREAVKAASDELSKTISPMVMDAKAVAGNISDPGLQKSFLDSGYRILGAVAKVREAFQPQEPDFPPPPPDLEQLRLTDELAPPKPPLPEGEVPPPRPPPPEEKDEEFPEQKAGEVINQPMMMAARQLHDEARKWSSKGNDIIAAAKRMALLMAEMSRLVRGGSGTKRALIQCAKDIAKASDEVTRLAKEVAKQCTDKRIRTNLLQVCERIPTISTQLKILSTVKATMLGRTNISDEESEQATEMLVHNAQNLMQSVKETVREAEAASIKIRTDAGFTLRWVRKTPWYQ
BRD2, endogenous in HEK293T cells, sequence (P25440 whole entry, looked up): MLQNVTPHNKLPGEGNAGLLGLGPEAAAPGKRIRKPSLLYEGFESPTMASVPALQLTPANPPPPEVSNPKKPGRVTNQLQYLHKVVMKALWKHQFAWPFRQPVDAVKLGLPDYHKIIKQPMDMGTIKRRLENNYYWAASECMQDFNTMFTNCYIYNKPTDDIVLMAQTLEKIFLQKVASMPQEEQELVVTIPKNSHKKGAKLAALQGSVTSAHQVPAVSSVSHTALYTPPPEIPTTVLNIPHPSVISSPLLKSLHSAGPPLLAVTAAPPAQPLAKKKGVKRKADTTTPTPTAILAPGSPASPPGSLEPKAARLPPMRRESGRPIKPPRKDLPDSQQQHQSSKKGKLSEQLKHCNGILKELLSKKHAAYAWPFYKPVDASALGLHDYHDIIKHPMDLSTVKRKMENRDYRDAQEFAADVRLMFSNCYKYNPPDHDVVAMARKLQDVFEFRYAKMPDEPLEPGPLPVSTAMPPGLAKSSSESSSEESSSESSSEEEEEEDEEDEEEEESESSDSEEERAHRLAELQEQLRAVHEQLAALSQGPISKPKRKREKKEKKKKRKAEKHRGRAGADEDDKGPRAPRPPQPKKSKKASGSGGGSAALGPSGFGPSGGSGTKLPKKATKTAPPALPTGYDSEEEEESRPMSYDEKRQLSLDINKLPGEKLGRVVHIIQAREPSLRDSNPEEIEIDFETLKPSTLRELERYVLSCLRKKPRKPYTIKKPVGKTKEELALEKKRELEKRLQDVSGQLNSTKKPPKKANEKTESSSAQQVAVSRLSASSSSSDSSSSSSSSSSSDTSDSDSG
BRD3, endogenous in HEK293T cells, sequence (Q15059 2-726): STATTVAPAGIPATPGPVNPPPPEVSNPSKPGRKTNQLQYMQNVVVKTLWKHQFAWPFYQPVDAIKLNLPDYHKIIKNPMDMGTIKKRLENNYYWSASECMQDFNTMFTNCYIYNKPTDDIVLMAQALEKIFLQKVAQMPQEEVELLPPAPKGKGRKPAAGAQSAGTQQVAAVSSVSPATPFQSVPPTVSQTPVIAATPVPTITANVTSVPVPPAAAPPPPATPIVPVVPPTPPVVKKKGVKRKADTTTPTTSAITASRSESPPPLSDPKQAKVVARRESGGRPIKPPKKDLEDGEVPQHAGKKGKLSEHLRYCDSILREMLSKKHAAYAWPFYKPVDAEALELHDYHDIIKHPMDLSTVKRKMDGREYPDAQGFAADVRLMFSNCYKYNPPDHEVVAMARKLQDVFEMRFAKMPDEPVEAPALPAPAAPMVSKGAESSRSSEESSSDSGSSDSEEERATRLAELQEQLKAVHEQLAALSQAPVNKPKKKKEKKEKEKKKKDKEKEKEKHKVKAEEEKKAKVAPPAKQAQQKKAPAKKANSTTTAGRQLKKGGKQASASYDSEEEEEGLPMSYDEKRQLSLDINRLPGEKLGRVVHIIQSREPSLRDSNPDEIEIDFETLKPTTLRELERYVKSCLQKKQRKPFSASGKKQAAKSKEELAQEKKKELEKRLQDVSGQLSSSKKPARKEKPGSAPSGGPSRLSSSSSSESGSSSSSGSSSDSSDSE

CRBN-BirA mutant W386A
biotinylation in streptavidin pulldown (MS, A3-HA-Ub, CC-885 1 µM), W386A mutant against WT CRBN-BirA [1]: a decrease in biotinylation by the loss-of-function CRBN-BirA mutants | biotinylation in streptavidin pulldown (MS, A3-HA-Ub, CC-885 1 µM), W386A mutant against WT CRBN-BirA [2]: a decrease in biotinylation by the loss-of-function CRBN-BirA mutants | biotinylation in streptavidin pulldown (MS, A3-HA-Ub, CC-885 1 µM), W386A mutant against WT CRBN-BirA [3]: a decrease in biotinylation by the loss-of-function CRBN-BirA mutants

DCAF15 fused to BirA biotin ligase (DCAF15-BirA)
differential enrichment in streptavidin pulldown (MS, triplicates, A3-HA-Ub), E7820 (10 µM) against DMSO [4]: the induced ubiquitinated substrate RBM39/CAPERα was produced as a result of the use of the E7820 molecular glue in conjunction with DCAF15-BirA and associated CRL4 E3 ligase

CRBN-BirA mutant D249Y
biotinylation in streptavidin pulldown (MS, A3-HA-Ub, CC-885 1 µM), D249Y mutant against WT CRBN-BirA [1]: a decrease in biotinylation by the loss-of-function CRBN-BirA mutants | biotinylation in streptavidin pulldown (MS, A3-HA-Ub, CC-885 1 µM), D249Y mutant against WT CRBN-BirA [2]: a decrease in biotinylation by the loss-of-function CRBN-BirA mutants | biotinylation in streptavidin pulldown (MS, A3-HA-Ub, CC-885 1 µM), D249Y mutant against WT CRBN-BirA [3]: a decrease in biotinylation by the loss-of-function CRBN-BirA mutants

VHL E3 ligase fused to E. coli wild-type BirA biotin ligase (VHL-BirA)
differential enrichment in streptavidin pulldown (MS, triplicates, A3-HA-Ub), PROTAC ARV-771 (1 µM) against DMSO [5]: VHL-BirA; ubiquitinated substrates BRD2, BRD3, BRD4 observed in the upper right portion of the top right volcano plot | differential enrichment in streptavidin pulldown (MS, triplicates, A3-HA-Ub), PROTAC ARV-771 (1 µM) against DMSO [6]: VHL-BirA; ubiquitinated substrates BRD2, BRD3, BRD4 observed in the upper right portion of the top right volcano plot | differential enrichment in streptavidin pulldown (MS, triplicates, A3-HA-Ub), PROTAC ARV-771 (1 µM) against DMSO [7]: VHL-BirA; ubiquitinated substrates BRD2, BRD3, BRD4 observed in the upper right portion of the top right volcano plot | proteins differentially biotinylated by VHL-BirA against CRBN-BirA (MS, triplicates, A3-tagged ubiquitin, HEK293T) [8]: One of the best known VHL substrates, HIF1A was among the hits of differentially biotinylated proteins by VHL-BirA

CRBN E3 ligase fused at its carboxy terminus to E. coli wild-type BirA biotin ligase (CRBN-BirA)
# of PSMs in streptavidin pulldown (MS), A3-Ub, CC-885 [1]: 20 PSMs | # of PSMs in streptavidin pulldown (MS), A3-Ub, DMSO [1]: 0 PSMs | # of PSMs in streptavidin pulldown (MS), Avi-Ub, CC-885 [1]: 13 PSMs | # of PSMs in streptavidin pulldown (MS), Avi-Ub, DMSO [1]: 0 PSMs | biotinylation in streptavidin pulldown (MS, A3-HA-Ub, CC-885 1 µM), WT CRBN-BirA against loss-of-function mutants [1]: substrates GSPT1, GSPT2, VCL and CSNK1A1 were identified | differential enrichment in streptavidin pulldown (MS, triplicates, A3-Ub), CC-885 against DMSO [1]: GSPT1 and GSPT2 are observed to be the most upregulated proteins, both by amount and by statistical significance | biotinylated, ubiquitinated V5-IKZF1 in streptavidin bead eluates (Western blot), Avi-Ub or A3-Ub, with pomalidomide (1 µM) (V5-tagged IKZF1 protein): both substrate peptide-tagged ubiquitin variants showed pomalidomide-induced ubiquitination of IKZF1 by E3 ligase CRBN | biotinylated, ubiquitinated V5-IKZF1 in streptavidin pulldown (Western blot, Avi-HA-Ub), with pomalidomide (1 µM) (V5-tagged IKZF1 protein): in conditions where pomalidomide was present, an increased amount of mono- and poly-ubiquitinated V5-IKZF1 was captured by the streptavidin beads | sensitivity in detecting pomalidomide-induced ubiquitination of V5-IKZF1 (Western blot quantification), A3-tagged ubiquitin (V5-tagged IKZF1 protein): 17.76 to 5.58 when comparing A3 to Avi | sensitivity in detecting pomalidomide-induced ubiquitination of V5-IKZF1 (Western blot quantification), Avi-tagged ubiquitin (V5-tagged IKZF1 protein): 17.76 to 5.58 when comparing A3 to Avi | ubiquitinated V5-IKZF1 captured by streptavidin beads (Western blot quantification, Avi-HA-Ub), pomalidomide against DMSO (V5-tagged IKZF1 protein): approximately 3.9-fold more ubiquitinated V5-IKZF1 substrate was captured by the streptavidin beads | # of PSMs in streptavidin pulldown (MS), A3-Ub, CC-885 [2]: 30 PSMs | # of PSMs in streptavidin pulldown (MS), A3-Ub, DMSO [2]: 0 PSMs | # of PSMs in streptavidin pulldown (MS), Avi-Ub, CC-885 [2]: 25 PSMs | # of PSMs in streptavidin pulldown (MS), Avi-Ub, DMSO [2]: 0 PSMs | biotinylated, ubiquitinated endogenous GSPT1 in streptavidin pulldown (Western blot, Avi-HA-Ub), with CC-885 (1 µM) [2]: mono- and poly-ubiquitinated GSPT1 captured by the streptavidin beads were only observed in conditions where CC-885 was present | biotinylation in streptavidin pulldown (MS, A3-HA-Ub, CC-885 1 µM), WT CRBN-BirA against loss-of-function mutants [2]: substrates GSPT1, GSPT2, VCL and CSNK1A1 were identified | differential enrichment in streptavidin pulldown (MS, triplicates, A3-Ub), CC-885 against DMSO [2]: GSPT1 and GSPT2 are observed to be the most upregulated proteins, both by amount and by statistical significance | sensitivity in detecting CC-885-induced ubiquitination of GSPT1 by CRBN (Western blot quantification), A3-tag [2]: when comparing A3-tag to Avi-tag (36.39 to 15.46, respectively) | sensitivity in detecting CC-885-induced ubiquitination of GSPT1 by CRBN (Western blot quantification), Avi-tag [2]: when comparing A3-tag to Avi-tag (36.39 to 15.46, respectively) | ubiquitinated GSPT1 captured by streptavidin beads (Western blot quantification, Avi-HA-Ub), CC-885 against DMSO [2]: 6-12 fold more ubiquitinated GSPT1 was captured by the streptavidin beads | biotinylation in streptavidin pulldown (MS, A3-HA-Ub, CC-885 1 µM), WT CRBN-BirA against loss-of-function mutants [3]: substrates GSPT1, GSPT2, VCL and CSNK1A1 were identified | differential enrichment in streptavidin pulldown (MS, triplicates, A3-HA-Ub), PROTAC dBET6 (1 µM) against DMSO [5]: CRBN-BirA; ubiquitinated substrates BRD2, BRD3, BRD4 observed in the upper right portion of the top left volcano plot | proteins differentially biotinylated, VHL-BirA against CRBN-BirA (MS, triplicates, A3-tagged ubiquitin, HEK293T) [9]: Other identified proteins included GLUL, which is a reported a CRBN substrate | differential enrichment in streptavidin pulldown (MS, triplicates, A3-HA-Ub), PROTAC dBET6 (1 µM) against DMSO [6]: CRBN-BirA; ubiquitinated substrates BRD2, BRD3, BRD4 observed in the upper right portion of the top left volcano plot | differential enrichment in streptavidin pulldown (MS, triplicates, A3-HA-Ub), PROTAC dBET6 (1 µM) against DMSO [7]: CRBN-BirA; ubiquitinated substrates BRD2, BRD3, BRD4 observed in the upper right portion of the top left volcano plot
